How the values were obtained:
[1] = target: Tau protein (in bone marrow derived macrophages), P10637
[2] = target: T1, NFATc4
T1 sequence (Q14934 1-902, species assumed, looked up): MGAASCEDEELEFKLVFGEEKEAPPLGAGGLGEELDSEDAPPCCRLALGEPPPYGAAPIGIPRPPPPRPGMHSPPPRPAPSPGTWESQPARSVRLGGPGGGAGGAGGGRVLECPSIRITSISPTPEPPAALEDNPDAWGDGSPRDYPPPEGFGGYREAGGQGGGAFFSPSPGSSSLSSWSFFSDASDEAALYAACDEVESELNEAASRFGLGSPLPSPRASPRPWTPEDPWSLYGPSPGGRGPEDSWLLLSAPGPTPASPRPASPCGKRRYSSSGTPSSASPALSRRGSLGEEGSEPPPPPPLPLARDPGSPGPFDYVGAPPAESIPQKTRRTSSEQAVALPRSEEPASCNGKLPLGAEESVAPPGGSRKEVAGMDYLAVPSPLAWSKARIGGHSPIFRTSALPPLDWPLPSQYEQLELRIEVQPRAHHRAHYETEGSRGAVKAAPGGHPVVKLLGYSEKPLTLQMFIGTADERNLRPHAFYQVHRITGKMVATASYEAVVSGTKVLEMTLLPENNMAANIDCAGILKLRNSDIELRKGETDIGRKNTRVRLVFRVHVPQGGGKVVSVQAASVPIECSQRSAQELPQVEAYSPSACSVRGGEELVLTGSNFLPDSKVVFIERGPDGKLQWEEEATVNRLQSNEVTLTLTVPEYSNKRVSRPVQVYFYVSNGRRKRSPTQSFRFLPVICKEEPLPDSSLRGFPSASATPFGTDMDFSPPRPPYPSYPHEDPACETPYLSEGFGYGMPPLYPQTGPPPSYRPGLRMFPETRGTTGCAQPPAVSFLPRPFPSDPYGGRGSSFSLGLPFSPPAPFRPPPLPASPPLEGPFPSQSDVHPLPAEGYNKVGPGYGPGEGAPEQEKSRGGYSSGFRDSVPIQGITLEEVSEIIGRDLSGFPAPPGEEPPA

[3] = target: Rac1 (murine BMDM cells), P63001

Sequence of Tau protein (in bone marrow derived macrophages), P10637 (P10637 whole entry, looked up): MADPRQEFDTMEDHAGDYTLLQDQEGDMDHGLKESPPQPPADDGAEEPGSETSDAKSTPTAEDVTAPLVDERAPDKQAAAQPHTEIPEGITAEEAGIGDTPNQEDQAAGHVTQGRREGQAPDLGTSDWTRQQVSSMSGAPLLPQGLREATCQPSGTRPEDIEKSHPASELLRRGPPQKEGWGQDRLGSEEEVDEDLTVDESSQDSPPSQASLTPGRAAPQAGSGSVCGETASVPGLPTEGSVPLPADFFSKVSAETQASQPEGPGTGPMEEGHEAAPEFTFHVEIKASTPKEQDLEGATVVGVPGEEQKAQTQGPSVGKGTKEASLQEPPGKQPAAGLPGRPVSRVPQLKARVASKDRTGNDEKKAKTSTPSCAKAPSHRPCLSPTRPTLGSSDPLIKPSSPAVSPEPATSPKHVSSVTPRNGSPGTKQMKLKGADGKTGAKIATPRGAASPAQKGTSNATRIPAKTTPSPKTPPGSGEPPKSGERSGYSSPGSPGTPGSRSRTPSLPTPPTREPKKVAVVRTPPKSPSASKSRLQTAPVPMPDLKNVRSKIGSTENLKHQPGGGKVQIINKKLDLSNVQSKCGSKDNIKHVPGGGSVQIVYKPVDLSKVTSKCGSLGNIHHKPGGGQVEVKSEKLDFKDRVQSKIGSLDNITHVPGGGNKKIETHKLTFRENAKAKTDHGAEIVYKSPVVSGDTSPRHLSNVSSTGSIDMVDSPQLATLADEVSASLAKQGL

B1: murine IRAK-1 (endogenous, wild type BMDM cells) (protein)
chain: MAGGPGPGEPVVPGAQHFLYEVPPWVMCRFYKVMDALEPADWCQFAALIVRDQTELRLCERSEQRTASVLWPWINRNARVADLVHILTHLQLLRARDIITAWHPPAPVVPPSTAAPRPSSISAGSEAGDWSPRKLQSSASTFLSPAFPGSQTHSESELLQVPLPVSLGPPLPSSAPSSTKSSPESPVSGLQRAHPSPFCWPFCEISQGTCNFSEELRIGEGGFGCVYRAVMRNTTYAVKRLKEEADLEWTMVKQSFLTEVEQLSRFRHPNIVDFAGYCAESGLYCLVYGFLPNGSLEDQLHLQTQACSPLSWPQRLDILLGTARAIQFLHQDSPSLIHGDIKSSNVLLDERLMPKLGDFGLARFSRFAGAKASQSSTVARTSTVRGTLAYLPEEYIKTGRLAVDTDTFSFGVVILETLAGQRAVRTQGAKTKYLKDLIEDEAEEAGVTLKSTQPTLWVGVATDAWAAPIAAQIYKKHLDSRPGPCPPQLGLALAQLACCCMHRRAKKRPPMTQVYKRLEGLQAGPPWELEVAGHGSPSPQENSYMSTTGSAQSGDEPWQPLVVTTRAPAQAAQQLQRSPNQPVESDESVPGLSATLHSWHLTPGSHPSPASFREASCTQGGTTRESSVRSSPGFQPTTMEGSPTGSSSLLSSEPPQIIINPARQKMVQKLALYEEGVLDSLQLLSSGFFPGLDLEPEKSQGPEESDEFQS
- phosphorylated Tau (PHF-Tau) by Western blot after BLP (Pam3CSK4) treatment [1]: stimulation of wild type cells led to increased Tau phosphorylation. In contrast, Tau phosphorylation is ablated in IRAK-1 deficient cells
- phosphorylated NFATc4 (p-NFATc4) by Western blot [2]: p-NFATc4 was found in the wild type cells (Panel B, lanes 1-3) whereas significantly less was found in the IRAK-1 deficient cells
- Rac1 activity (PBD pull down assay) after LPS treatment for 5 min [3]: relative Rac1 activity is significantly higher in LPS-induced wild type macrophages and not in IRAK-1 deficient macrophages

From patent publication US20100189695
